Test results taken from patent publication US9738884B2, “Therapeutic agent for epithelial and endothelial injury” (NIHON UNIVERSITY, priority 2012, dated 2017).

Test system: A431 cells
Test: Adhesion of A431 cells to the substrate, cells removed when the culture dish was shaken (Example 2)
Type: cell-based
Details: 1 pmol/ml, 96-well culture dish
Procedure: FIG. 2 is a graph showing the results of Example 2 of the present application. The numerical value of the vertical axis indicates the number of cells removed from the bottom surface when a culture dish was shaken.
A portion in the entire-length F9 (F9(47-471)), which has an activity of inducing spread of cells on a substrate, was determined using an ability to adhere to the substrate as an indicator. […] Thereafter, an F9 portion having an action to inhibit the aforementioned inhibitory action was examined under conditions in which a culture was performed at 37° C. for 24 hours and the culture dish was then shaken on a shaker. It is to be noted that F9(47-191) is a peptide consisting of amino acids at positions 47 to 191 in the amino acid sequence shown in SEQ ID NO: 8, and that F9(192-202) is a peptide consisting of amino acids at positions 192 to 202 in the amino acid sequence shown in SEQ ID NO: 8. […] Each of the numerical values (on the vertical axis) in the graph of FIG. 2 is indicated as a mean±SD (**: P<0.01). In addition, in FIG. 2, the term “47-191” indicates the conditions in which F9(47-191) was added, and the terms “47-471,” “192-236,” “192-216,” and “192-202” indicate the results obtained in the case of adding F9(47-471), F9(192-236), F9(192-216), and F9(192-202), respectively.

B1: F9(47-191): peptide consisting of amino acids at positions 47 to 191 of SEQ ID NO: 8 (mouse F9) (protein, listed as Mus musculus)
chain: YNSGKLEEFVRGNLERECIEERCSFEEAREVFENTEKTTEFWKQYVDGDQCESNPCLNGGICKDDISSYECWCQVGFEGRNCELDATCNIKNGRCKQFCKNSPDNKVICSCTEGYQLAEDQKSCEPTVPFPCGRASISYSSKKIT
action on adhesion between the cells and the substrate: action to inhibit adhesion between the cells and the substrate
